From PMC4691197 (PLoS ONE, 2015)
Residue numbers refer to the chain shown, from its start. Numbers in names are those of the source.

B1: YFP WT αB-crystallin (natural protein, UniProt P02511 1-175, looked up)
chain: MDIAIHHPWIRRPFFPFHSPSRLFDQFFGEHLLESDLFPTSTSLSPFYLRPPSFLRAPSWFDTGLSEMRLEKDRFSVNLDVKHFSPEELKVKVLGDVIEVHGKHEERQDEHGFISREFHRKYRIPADVDPLTITSSLSSDGVLTVNGPRKQVSGPERTIPITREEKPAVTAAPKK
notes: αB-crystallin, wild type, in pZS Yellow1-N1; Surmise: whole αB-crystallin (1-175, as the domain limits imply) with the fluorescent protein at the C-terminus (N1 vector); Expressed as ~46 kDa protein; also called WT YFP αB-crystallin; YFP αB; source: HeLa, transfected, in live cells
B2: YFP αB N78D crystallin (natural protein, UniProt P02511 1-175, looked up)
chain: B1 chain with N78D
notes: αB-crystallin N78D, made by site-directed mutagenesis of the pZS Yellow1-N1 construct of αB-crystallin; Same limits as m12; source: HeLa, transfected, in live cells
B3: YFP αB N146D crystallin (natural protein, UniProt P02511 1-175, looked up)
chain: B1 chain with N146D
notes: αB-crystallin N146D, made by site-directed mutagenesis of the pZS Yellow1-N1 construct of αB-crystallin; Same limits as m12; source: HeLa, transfected, in live cells
B4: YFP αB NTD (N-terminal domain of αB-crystallin, 1–64 amino acids) (domain or fragment, UniProt P02511 1-64, looked up)
chain: MDIAIHHPWIRRPFFPFHSPSRLFDQFFGEHLLESDLFPTSTSLSPFYLRPPSFLRAPSWFDTG
notes: αB-crystallin N-terminal domain, residues 1-64; also called αB NTD-YFP; source: HeLa, transfected, in live cells
B5: YFP αB CD (core domain of αB-crystallin, 65–146 amino acids) (domain or fragment, UniProt P02511 65-146, looked up)
chain: LSEMRLEKDRFSVNLDVKHFSPEELKVKVLGDVIEVHGKHEERQDEHGFISREFHRKYRIPADVDPLTITSSLSSDGVLTVN
notes: αB-crystallin core domain, residues 65-146; also called αB CD-YFP; source: HeLa, transfected, in live cells
B6: YFP αB CTE (C-terminal extension of αB-crystallin, 147–175 amino acids) (domain or fragment, UniProt P02511 147-175, looked up)
chain: GPRKQVSGPERTIPITREEKPAVTAAPKK
notes: αB-crystallin C-terminal extension, residues 147-175; also called αB CTE-YFP; source: HeLa, transfected, in live cells
B7: Recombinant His-tagged WT αB-crystallin (natural protein, UniProt P02511 1-175, looked up)
chain: B1 chain
notes: αB-crystallin, wild type; Surmise: N-terminal His tag from pET 28b
B8: Recombinant His-tagged αB-crystallin N78D (natural protein, UniProt P02511 1-175, looked up)
chain: B1 chain with N78D
notes: αB-crystallin with the deamidation-mimicking change N78D, made by site-directed mutagenesis of the pET 28b construct of WT αB; Surmise: N-terminal His tag from pET 28b; also called αB N78D
B9: Recombinant His-tagged αB-crystallin N146D (natural protein, UniProt P02511 1-175, looked up)
chain: B1 chain with N146D
notes: αB-crystallin with the deamidation-mimicking change N146D, made by site-directed mutagenesis of the pET 28b construct of WT αB; Surmise: N-terminal His tag from pET 28b; also called αB N146D

Tests used:
CFP WT βA3-crystallin = molecular target: T1, CFP WT βA3-crystallin (UniProt P05813 1-215); assay: FRET or BRET; FLIM-FRET in live HeLa cells co-transfected with CFP βA3-crystallin (donor) and YFP-tagged acceptors; donor life-time after 405 nm pulsed excitation; E = 1-TFRET/TCFP with TCFP 2.8 ns; 5-6 cells from 3 samples; details: partners not purified
T1 construct: βA3-crystallin, wild type; Surmise: N1 vectors place the fluorescent protein at the C-terminus of the insert; Expressed as ~51 kDa protein; degraded products were also seen on blots; also called CFP βA3-crystallin; βA3- CFP; source: HeLa, transfected, in live cells

[1] = molecular target: T2, Recombinant His-tagged WT βA3-crystallin (UniProt P05813 1-215); assay: SPR; BIACORE 2000; βA3-crystallin immobilised on a CM5 chip by EDC/NHS to ~2500 RU; analytes 5 μM-25 μM at 20 μL/min; room temperature; 50 mM sodium phosphate, pH 7.8, 150 mM NaCl; regeneration with 1 M NaCl; duplicates; 1:1 Langmuir fit; details: both partners purified
T2 construct: βA3-crystallin, wild type; Surmise: cloning into Nhe I/Xho I of pET 28b with a stop codon in the insert gives an N-terminal His tag; no cleavage is mentioned

Binder | FRET efficiency (CFP WT βA3-crystallin) [%] | mean life-time of the donor CFP βA3-crystallin (CFP WT βA3-crystallin) [ns] | Kd [1] [nM]
B1 | 18 | 2.4 ± 0.2 | –
B2 | 36 | 1.6 ± 0.3 | –
B3 | 22 | 2.2 ± 0.3 | –
B4 | 32 | 2.1 ± 0.3 | –
B5 | 14 | 2.5 ± 0.2 | –
B6 | 14 | 2.5 ± 0.2 | –
B7 | – | – | 5.75
B8 | – | – | 2.46
B9 | – | – | 5.05
